# Measurements as given in patent US20140087995A1 (published 2014).
# Numbered stars: 1 amine (or outer) side, 2 acyl side, 3 side chain; on linkers, the order of the positions; unused ones are H or OH. Bridge positions count the residues as written; N and C are the ends. Side chains are listed from the residue outwards. Ends that are not written are not given here. * marks the point of attachment. C20 diacid = O=C(O)CCCCCCCCCCCCCCCCCCC(=O)*; γGlu = O=C(O)[C@H](CCC(=O)[*:2])N[*:1]; AEEA = NCCOCCOCC(=O)O
# T1: human calcitonin receptor (human, UniProt P30988 25-474)
# T1 construct: whole, on cells; Assay used cell membranes, not intact cells; also called hCTR; hCT
# T1 sequence (looked up): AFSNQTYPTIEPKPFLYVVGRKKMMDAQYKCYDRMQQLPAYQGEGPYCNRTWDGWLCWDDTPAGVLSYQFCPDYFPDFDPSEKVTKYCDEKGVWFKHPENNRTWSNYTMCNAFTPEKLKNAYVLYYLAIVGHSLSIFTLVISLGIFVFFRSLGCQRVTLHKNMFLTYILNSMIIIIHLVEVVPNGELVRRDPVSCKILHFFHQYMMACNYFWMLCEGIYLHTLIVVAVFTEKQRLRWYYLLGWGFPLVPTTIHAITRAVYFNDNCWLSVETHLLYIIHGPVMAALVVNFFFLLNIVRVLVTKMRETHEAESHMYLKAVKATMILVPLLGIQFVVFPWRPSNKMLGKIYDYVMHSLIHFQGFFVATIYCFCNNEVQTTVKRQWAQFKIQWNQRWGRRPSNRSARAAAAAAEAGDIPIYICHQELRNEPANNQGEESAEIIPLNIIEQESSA
# T2: human amylin receptor (amylin 3(a) receptor: human calcitonin receptor with RAMP-3) (human, UniProt P30988 25-474; O60896 24-148)
# T2 construct: whole, on cells; Assay used cell membranes of the Amylin 3(a)/CRE-luc BHK cells, not intact cells; also called hAmylin-R; hAmylinR
# T2 sequence (looked up) 1: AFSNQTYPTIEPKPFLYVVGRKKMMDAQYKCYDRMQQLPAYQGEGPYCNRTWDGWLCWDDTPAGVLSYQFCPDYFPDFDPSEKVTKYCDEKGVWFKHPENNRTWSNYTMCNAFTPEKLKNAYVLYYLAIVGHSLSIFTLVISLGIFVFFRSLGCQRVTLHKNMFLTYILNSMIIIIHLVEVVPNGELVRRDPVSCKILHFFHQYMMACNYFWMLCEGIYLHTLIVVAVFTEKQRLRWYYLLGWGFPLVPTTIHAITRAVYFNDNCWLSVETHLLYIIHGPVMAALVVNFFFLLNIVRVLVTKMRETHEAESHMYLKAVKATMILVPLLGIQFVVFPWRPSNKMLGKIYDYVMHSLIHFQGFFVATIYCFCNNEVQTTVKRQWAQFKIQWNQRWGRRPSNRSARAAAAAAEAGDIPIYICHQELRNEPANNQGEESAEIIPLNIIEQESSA
# T2 sequence (looked up) 2: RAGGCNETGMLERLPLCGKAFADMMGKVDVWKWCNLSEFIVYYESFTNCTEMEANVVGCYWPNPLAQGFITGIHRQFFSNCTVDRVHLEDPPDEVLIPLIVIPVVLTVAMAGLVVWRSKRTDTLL
# T3: human calcitonin receptor (human, UniProt P30988 25-474)
# T3 construct: whole, on cells; Assay used cell membranes of the transfected BHK cells; also called hCTR; hCT
# T3 sequence (looked up): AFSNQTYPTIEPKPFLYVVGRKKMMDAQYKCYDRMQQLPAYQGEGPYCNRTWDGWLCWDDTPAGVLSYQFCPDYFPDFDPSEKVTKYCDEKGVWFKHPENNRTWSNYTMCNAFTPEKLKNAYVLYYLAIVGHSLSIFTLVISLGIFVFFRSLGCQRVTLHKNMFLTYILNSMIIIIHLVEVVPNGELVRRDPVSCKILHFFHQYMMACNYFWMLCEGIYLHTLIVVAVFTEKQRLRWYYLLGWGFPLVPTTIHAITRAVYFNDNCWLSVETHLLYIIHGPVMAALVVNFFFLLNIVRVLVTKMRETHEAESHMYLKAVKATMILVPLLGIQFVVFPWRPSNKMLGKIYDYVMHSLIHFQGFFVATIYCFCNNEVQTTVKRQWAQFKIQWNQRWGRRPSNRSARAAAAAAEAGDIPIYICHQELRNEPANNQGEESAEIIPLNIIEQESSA
# Assays:
# [1] = target: T1, human calcitonin receptor; experiment: ratio IC50 hCTR / IC50 hAmylin-R (reference: human amylin receptor), SPA competition assays
# How it was run: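 Competition binding by SPA with cell membranes (35 ng/μL) and SPA beads in 50 mM Hepes pH 7.4 with 1 mM CaCl2, 5 mM MgCl2, 0.1% OA and 0.02% Tween20. Incubated 120 min at 25 °C with shaking, then counted.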
# [2] = target: T2, human amylin receptor (amylin 3(a) …); experiment: SPA competition with 125I-rat amylin on membranes of BHK cells with human calcitonin receptor and RAMP-3 (Assay V)
# How it was run: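 SPA beads with BHK Amylin 3(a)/CRE-luc cell membranes (35 ng/μL final) in 50 mM Hepes pH 7.4, 1 mM CaCl2, 5 mM MgCl₂, 0.1% OA, 0.02% Tween20.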
# [3] = target: T1, human calcitonin receptor; experiment: SPA competition with 125I-calcitonin on membranes of BHK cells with human calcitonin receptor (Assay VII)
# How it was run: (§1)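 BHK hCTR membranes 35 ng/μL + SPA beads 0.05 mg/well; buffer 50 mM Hepes pH 7.4, 1 mM CaCl2, 5 mM MgCl₂, 0.1% OA, 0.02% Tween20. 120 min, 25° C., shaking. Scintillation count; IC50 by one-site binding competition.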
# [4] = target: T3, human calcitonin receptor; experiment: SPA radioligand competition (125I-calcitonin), membranes of BHK cells with human calcitonin receptor
# How it was run: as §1
Ratio hCT/hAmylin binding [1],IC50 [2],IC50 [3],IC50 [4],Binder
36.2,0.217 nM,7.87 nM,–,{C20 diacid-γGlu}-GRCNTATCATQRLAHFLRHSSPNFGAIPSSTNVGPNTY-NH2 (disulfide 3-8; SMILES CC[C@H](C)[C@H](NC(=O)[C@H](C)NC(=O)CNC(=O)[C@H](Cc1ccccc1)NC(=O)[C@H](CC(N)=O)NC(=O)[C@@H]1CCCN1C(=O)[C@H](CO)NC(=O)[C@H](CO)NC(=O)[C@H](Cc1c[nH]cn1)NC(=O)[C@H](CCCNC(=N)N)NC(=O)[C@H](CC(C)C)NC(=O)[C@H](Cc1ccccc1)NC(=O)[C@H](Cc1c[nH]cn1)NC(=O)[C@H](C)NC(=O)[C@H](CC(C)C)NC(=O)[C@H](CCCNC(=N)N)NC(=O)[C@H](CCC(N)=O)NC(=O)[C@@H](NC(=O)[C@H](C)NC(=O)[C@@H]1CSSC[C@H](NC(=O)[C@H](CCCNC(=N)N)NC(=O)CNC(=O)CC[C@H](NC(=O)CCCCCCCCCCCCCCCCCCC(=O)O)C(=O)O)C(=O)N[C@@H](CC(N)=O)C(=O)N[C@@H]([C@@H](C)O)C(=O)N[C@@H](C)C(=O)N[C@@H]([C@@H](C)O)C(=O)N1)[C@@H](C)O)C(=O)N1CCC[C@H]1C(=O)N[C@@H](CO)C(=O)N[C@@H](CO)C(=O)N[C@H](C(=O)N[C@@H](CC(N)=O)C(=O)N[C@H](C(=O)NCC(=O)N1CCC[C@H]1C(=O)N[C@@H](CC(N)=O)C(=O)N[C@H](C(=O)N[C@@H](Cc1ccc(O)cc1)C(N)=O)[C@@H](C)O)C(C)C)[C@@H](C)O)
100,0.348 nM,35 nM,–,"{C20 diacid-γGlu}-GRCNTATCATQRLAHFLRHSSPNFGAIPSSTNVGSNTY-NH2 (disulfide 3-8; SMILES CC[C@H](C)[C@H](NC(=O)[C@H](C)NC(=O)CNC(=O)[C@H](Cc1ccccc1)NC(=O)[C@H](CC(N)=O)NC(=O)[C@@H]1CCCN1C(=O)[C@H](CO)NC(=O)[C@H](CO)NC(=O)[C@H](Cc1c[nH]cn1)NC(=O)[C@H](CCCNC(=N)N)NC(=O)[C@H](CC(C)C)NC(=O)[C@H](Cc1ccccc1)NC(=O)[C@H](Cc1c[nH]cn1)NC(=O)[C@H](C)NC(=O)[C@H](CC(C)C)NC(=O)[C@H](CCCNC(=N)N)NC(=O)[C@H](CCC(N)=O)NC(=O)[C@@H](NC(=O)[C@H](C)NC(=O)[C@@H]1CSSC[C@H](NC(=O)[C@H](CCCNC(=N)N)NC(=O)CNC(=O)CC[C@H](NC(=O)CCCCCCCCCCCCCCCCCCC(=O)O)C(=O)O)C(=O)N[C@@H](CC(N)=O)C(=O)N[C@@H]([C@@H](C)O)C(=O)N[C@@H](C)C(=O)N[C@@H]([C@@H](C)O)C(=O)N1)[C@@H](C)O)C(=O)N1CCC[C@H]1C(=O)N[C@@H](CO)C(=O)N[C@@H](CO)C(=O)N[C@H](C(=O)N[C@@H](CC(N)=O)C(=O)N[C@H](C(=O)NCC(=O)N[C@@H](CO)C(=O)N[C@@H](CC(N)=O)C(=O)N[C@H](C(=O)N[C@@H](Cc1ccc(O)cc1)C(N)=O)[C@@H](C)O)C(C)C)[C@@H](C)O, also called compound 99)"
–,–,–,5.38 nM,"K([AEEA-γGlu-C20 diacid])CNTATCATQRLANFLRHSSPNFGAIPPSTPVGSNTY-NH2 (disulfide 2-7, Synthetic analogue; also called compound 53)"
–,–,–,4.38 nM,"K([AEEA-γGlu-C20 diacid])CNTATCATQRLANFLRHSSPNFGAIPSPTPVGSNTY-NH2 (disulfide 2-7; N-terminus assumed; SMILES CC[C@H](C)[C@H](NC(=O)[C@H](C)NC(=O)CNC(=O)[C@H](Cc1ccccc1)NC(=O)[C@H](CC(N)=O)NC(=O)[C@@H]1CCCN1C(=O)[C@H](CO)NC(=O)[C@H](CO)NC(=O)[C@H](Cc1c[nH]cn1)NC(=O)[C@H](CCCNC(=N)N)NC(=O)[C@H](CC(C)C)NC(=O)[C@H](Cc1ccccc1)NC(=O)[C@H](CC(N)=O)NC(=O)[C@H](C)NC(=O)[C@H](CC(C)C)NC(=O)[C@H](CCCNC(=N)N)NC(=O)[C@H](CCC(N)=O)NC(=O)[C@@H](NC(=O)[C@H](C)NC(=O)[C@@H]1CSSC[C@H](NC(=O)[C@@H](N)CCCCNC(=O)COCCOCCNC(=O)CC[C@H](NC(=O)CCCCCCCCCCCCCCCCCCC(=O)O)C(=O)O)C(=O)N[C@@H](CC(N)=O)C(=O)N[C@@H]([C@@H](C)O)C(=O)N[C@@H](C)C(=O)N[C@@H]([C@@H](C)O)C(=O)N1)[C@@H](C)O)C(=O)N1CCC[C@H]1C(=O)N[C@@H](CO)C(=O)N1CCC[C@H]1C(=O)N[C@H](C(=O)N1CCC[C@H]1C(=O)N[C@H](C(=O)NCC(=O)N[C@@H](CO)C(=O)N[C@@H](CC(N)=O)C(=O)N[C@H](C(=O)N[C@@H](Cc1ccc(O)cc1)C(N)=O)[C@@H](C)O)C(C)C)[C@@H](C)O, Synthetic analogue; also called compound 54)"
–,–,–,2.17 nM,"K([AEEA-γGlu-C20 diacid])CNTATCATQRLANFLRHSSPNFGAIPPSTNVGPNTY-NH2 (disulfide 2-7; N-terminus assumed; SMILES CC[C@H](C)[C@H](NC(=O)[C@H](C)NC(=O)CNC(=O)[C@H](Cc1ccccc1)NC(=O)[C@H](CC(N)=O)NC(=O)[C@@H]1CCCN1C(=O)[C@H](CO)NC(=O)[C@H](CO)NC(=O)[C@H](Cc1c[nH]cn1)NC(=O)[C@H](CCCNC(=N)N)NC(=O)[C@H](CC(C)C)NC(=O)[C@H](Cc1ccccc1)NC(=O)[C@H](CC(N)=O)NC(=O)[C@H](C)NC(=O)[C@H](CC(C)C)NC(=O)[C@H](CCCNC(=N)N)NC(=O)[C@H](CCC(N)=O)NC(=O)[C@@H](NC(=O)[C@H](C)NC(=O)[C@@H]1CSSC[C@H](NC(=O)[C@@H](N)CCCCNC(=O)COCCOCCNC(=O)CC[C@H](NC(=O)CCCCCCCCCCCCCCCCCCC(=O)O)C(=O)O)C(=O)N[C@@H](CC(N)=O)C(=O)N[C@@H]([C@@H](C)O)C(=O)N[C@@H](C)C(=O)N[C@@H]([C@@H](C)O)C(=O)N1)[C@@H](C)O)C(=O)N1CCC[C@H]1C(=O)N1CCC[C@H]1C(=O)N[C@@H](CO)C(=O)N[C@H](C(=O)N[C@@H](CC(N)=O)C(=O)N[C@H](C(=O)NCC(=O)N1CCC[C@H]1C(=O)N[C@@H](CC(N)=O)C(=O)N[C@H](C(=O)N[C@@H](Cc1ccc(O)cc1)C(N)=O)[C@@H](C)O)C(C)C)[C@@H](C)O, Synthetic analogue; also called compound 55)"
–,–,–,2.09 nM,"K([AEEA-γGlu-C20 diacid])CNTATCATQRLANFLRHSSPNFGAIPSPTNVGPNTY-NH2 (disulfide 2-7; N-terminus assumed; SMILES CC[C@H](C)[C@H](NC(=O)[C@H](C)NC(=O)CNC(=O)[C@H](Cc1ccccc1)NC(=O)[C@H](CC(N)=O)NC(=O)[C@@H]1CCCN1C(=O)[C@H](CO)NC(=O)[C@H](CO)NC(=O)[C@H](Cc1c[nH]cn1)NC(=O)[C@H](CCCNC(=N)N)NC(=O)[C@H](CC(C)C)NC(=O)[C@H](Cc1ccccc1)NC(=O)[C@H](CC(N)=O)NC(=O)[C@H](C)NC(=O)[C@H](CC(C)C)NC(=O)[C@H](CCCNC(=N)N)NC(=O)[C@H](CCC(N)=O)NC(=O)[C@@H](NC(=O)[C@H](C)NC(=O)[C@@H]1CSSC[C@H](NC(=O)[C@@H](N)CCCCNC(=O)COCCOCCNC(=O)CC[C@H](NC(=O)CCCCCCCCCCCCCCCCCCC(=O)O)C(=O)O)C(=O)N[C@@H](CC(N)=O)C(=O)N[C@@H]([C@@H](C)O)C(=O)N[C@@H](C)C(=O)N[C@@H]([C@@H](C)O)C(=O)N1)[C@@H](C)O)C(=O)N1CCC[C@H]1C(=O)N[C@@H](CO)C(=O)N1CCC[C@H]1C(=O)N[C@H](C(=O)N[C@@H](CC(N)=O)C(=O)N[C@H](C(=O)NCC(=O)N1CCC[C@H]1C(=O)N[C@@H](CC(N)=O)C(=O)N[C@H](C(=O)N[C@@H](Cc1ccc(O)cc1)C(N)=O)[C@@H](C)O)C(C)C)[C@@H](C)O, Synthetic analogue; also called compound 56)"
